PMC4380364
pIC50: −log10 of the molar value.

Tests used:
[1] = biological target: T1, L-selectin (cell surface, Jurkat T lymphocytes) (Homo sapiens?) (UniProt P14151); assay: flow cytometry titration; conditions: FITC-labeled, Jurkat cells, competition with 100 nM FITC-DREG56 for 35 min at 4°C, washed in PBS, 2% PFA fix, SLeX assay in PBS with 1% human serum albumin …, scale: apparent affinity relative to LS-Multi-Aptamer
T1 sequence: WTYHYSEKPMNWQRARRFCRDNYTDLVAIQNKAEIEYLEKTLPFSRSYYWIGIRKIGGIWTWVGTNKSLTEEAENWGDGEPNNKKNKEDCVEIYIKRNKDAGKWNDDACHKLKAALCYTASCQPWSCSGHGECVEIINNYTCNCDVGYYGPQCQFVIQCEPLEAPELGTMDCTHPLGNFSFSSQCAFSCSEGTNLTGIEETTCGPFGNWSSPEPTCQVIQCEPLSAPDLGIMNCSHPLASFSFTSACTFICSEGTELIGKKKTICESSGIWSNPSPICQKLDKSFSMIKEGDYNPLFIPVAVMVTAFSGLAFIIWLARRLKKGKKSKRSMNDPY

[2] = biological target: T1, L-selectin (cell surface, Jurkat T lymphocytes); assay: competition (flow cytometry); conditions: vs 100 nM FITC-DREG56 antibody, 4°C, Jurkat cells, competition with 100 nM FITC-DREG56 for 35 min at 4°C, washed in PBS, 2% PFA fix, SLeX assay in PBS with 1% human serum albumin …

Sequence: TAGCCAAGGTAACCAGTACAAGGTGCTAAACGTAATGGCTTCGGCTTAC [LS-Aptamer (monovalent)]
- binding signal [1]: 0.001
- pIC50 [2]: < 6.00
